Reference: doi:10.1101/2021.03.03.433707 (bioRxiv, 2021)
Positions count from the first letter of the chain named. Names and notes keep the numbering of the source.

T1: MukB, full length, wild type (E. coli, UniProt P22523 1-1486)
T1 sequence (looked up): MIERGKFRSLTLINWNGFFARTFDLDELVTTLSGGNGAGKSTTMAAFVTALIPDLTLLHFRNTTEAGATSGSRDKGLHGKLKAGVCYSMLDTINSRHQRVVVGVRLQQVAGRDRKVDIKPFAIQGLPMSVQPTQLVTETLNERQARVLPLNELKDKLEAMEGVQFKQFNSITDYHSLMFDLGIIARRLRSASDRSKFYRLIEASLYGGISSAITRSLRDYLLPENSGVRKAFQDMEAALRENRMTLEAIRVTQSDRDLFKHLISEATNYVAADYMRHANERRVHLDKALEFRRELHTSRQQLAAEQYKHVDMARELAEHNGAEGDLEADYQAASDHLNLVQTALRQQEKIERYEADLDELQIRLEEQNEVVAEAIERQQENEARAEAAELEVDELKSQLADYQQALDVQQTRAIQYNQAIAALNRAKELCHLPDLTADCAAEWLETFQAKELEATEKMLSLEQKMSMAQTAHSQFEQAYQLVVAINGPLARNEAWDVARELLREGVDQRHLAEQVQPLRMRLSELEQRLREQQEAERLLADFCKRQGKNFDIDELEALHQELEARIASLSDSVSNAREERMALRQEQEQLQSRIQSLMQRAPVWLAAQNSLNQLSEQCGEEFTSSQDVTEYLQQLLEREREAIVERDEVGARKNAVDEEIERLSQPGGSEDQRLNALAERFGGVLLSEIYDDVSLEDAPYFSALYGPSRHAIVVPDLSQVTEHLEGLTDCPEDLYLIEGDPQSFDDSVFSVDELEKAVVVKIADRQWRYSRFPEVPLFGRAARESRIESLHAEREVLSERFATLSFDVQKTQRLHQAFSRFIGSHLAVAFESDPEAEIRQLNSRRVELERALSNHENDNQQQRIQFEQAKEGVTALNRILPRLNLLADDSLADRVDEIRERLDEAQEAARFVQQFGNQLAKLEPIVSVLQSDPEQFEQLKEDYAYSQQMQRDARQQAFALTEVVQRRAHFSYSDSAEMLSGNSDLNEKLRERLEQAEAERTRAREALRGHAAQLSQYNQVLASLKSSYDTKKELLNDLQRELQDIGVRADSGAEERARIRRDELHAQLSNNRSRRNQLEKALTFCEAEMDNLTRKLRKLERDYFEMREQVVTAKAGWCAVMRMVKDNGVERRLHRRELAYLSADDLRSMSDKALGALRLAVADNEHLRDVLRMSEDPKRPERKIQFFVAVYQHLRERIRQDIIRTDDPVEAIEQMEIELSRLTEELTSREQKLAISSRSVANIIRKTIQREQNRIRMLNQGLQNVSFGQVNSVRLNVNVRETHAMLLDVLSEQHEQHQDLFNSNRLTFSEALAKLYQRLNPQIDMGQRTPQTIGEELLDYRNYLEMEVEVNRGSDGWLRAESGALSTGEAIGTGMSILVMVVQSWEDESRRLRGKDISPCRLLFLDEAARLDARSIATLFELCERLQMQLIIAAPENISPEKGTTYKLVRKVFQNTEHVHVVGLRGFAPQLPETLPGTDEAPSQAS

B1: MukB long hinge (LH, 568-863) (domain or fragment, E. coli, UniProt P22523 568-863, looked up)
chain: SLSDSVSNAREERMALRQEQEQLQSRIQSLMQRAPVWLAAQNSLNQLSEQCGEEFTSSQDVTEYLQQLLEREREAIVERDEVGARKNAVDEEIERLSQPGGSEDQRLNALAERFGGVLLSEIYDDVSLEDAPYFSALYGPSRHAIVVPDLSQVTEHLEGLTDCPEDLYLIEGDPQSFDDSVFSVDELEKAVVVKIADRQWRYSRFPEVPLFGRAARESRIESLHAEREVLSERFATLSFDVQKTQRLHQAFSRFIGSHLAVAFESDPEAEIRQLNSRRVELERALSNHENDNQQQR
B2: ParE-His (enzyme, E. coli, UniProt P20083 1-630, looked up)
chain: MTQTYNADAIEVLTGLEPVRRRPGMYTDTTRPNHLGQEVIDNSVDEALAGHAKRVDVILHADQSLEVIDDGRGMPVDIHPEEGVPAVELILCRLHAGGKFSNKNYQFSGGLHGVGISVVNALSKRVEVNVRRDGQVYNIAFENGEKVQDLQVVGTCGKRNTGTSVHFWPDETFFDSPRFSVSRLTHVLKAKAVLCPGVEITFKDEINNTEQRWCYQDGLNDYLAEAVNGLPTLPEKPFIGNFAGDTEAVDWALLWLPEGGELLTESYVNLIPTMQGGTHVNGLRQGLLDAMREFCEYRNILPRGVKLSAEDIWDRCAYVLSVKMQDPQFAGQTKERLSSRQCAAFVSGVVKDAFILWLNQNVQAAELLAEMAISSAQRRMRAAKKVVRKKLTSGPALPGKLADCTAQDLNRTELFLVEGDSAGGSAKQARDREYQAIMPLKGKILNTWEVSSDEVLASQEVHDISVAIGIDPDSDDLSQLRYGKICILADADSDGLHIATLLCALFVKHFRALVKHGHVYVALPPLYRIDLGKEVYYALTEEEKEGVLEQLKRKKGKPNVQRFKGLGEMNPMQLRETTLDPNTRRLVQLTIDDEDDQRTDAMMDMLLAKKRSEDRRNWLQEKGDMAEIEV
B3: ParC, full length (enzyme, E. coli, UniProt P0AFI2 1-752, looked up)
chain: MSDMAERLALHEFTENAYLNYSMYVIMDRALPFIGDGLKPVQRRIVYAMSELGLNASAKFKKSARTVGDVLGKYHPHGDSACYEAMVLMAQPFSYRYPLVDGQGNWGAPDDPKSFAAMRYTESRLSKYSELLLSELGQGTADWVPNFDGTLQEPKMLPARLPNILLNGTTGIAVGMATDIPPHNLREVAQAAIALIDQPKTTLDQLLDIVQGPDYPTEAEIITSRAEIRKIYENGRGSVRMRAVWKKEDGAVVISALPHQVSGARVLEQIAAQMRNKKLPMVDDLRDESDHENPTRLVIVPRSNRVDMDQVMNHLFATTDLEKSYRINLNMIGLDGRPAVKNLLEILSEWLVFRRDTVRRRLNYRLEKVLKRLHILEGLLVAFLNIDEVIEIIRNEDEPKPALMSRFGLTETQAEAILELKLRHLAKLEEMKIRGEQSELEKERDQLQGILASERKMNNLLKKELQADAQAYGDDRRSPLQEREEAKAMSEHDMLPSEPVTIVLSQMGWVRSAKGHDIDAPGLNYKAGDSFKAAVKGKSNQPVVFVDSTGRSYAIDPITLPSARGQGEPLTGKLTLPPGATVDHMLMESDDQKLLMASDAGYGFVCTFNDLVARNRAGKALITLPENAHVMPPVVIEDASDMLLAITQAGRMLMFPVSDLPQLSKGKGNKIINIPSAEAARGEDGLAQLYVLPPQSTLTIHVGKRKIKLRPEELQKVTGERGRRGTLMRGLQRIDRVEIDSPRRASSGDSEE
B4: MatP^4A (K71A, Q72A, R75A and R77A) (domain or fragment, E. coli, UniProt P0A8N0 1-132, looked up)
chain: MKYQQLENLESGWKWKYLVKKHREGELITRYIEASAAQEAVDVLLSLENEPVLVNGWIDKHMNPELVNRMAATIAAARKRHFNAEHQHTRKKSIDLEFIVWQRLAGLAQRRGKTLSETIVQLIEDAENKEKY
B5: MatP^4E (K71E, Q72E, R75E and R77E) (domain or fragment, E. coli, UniProt P0A8N0 1-132, looked up)
chain: B4 chain with A71E, A72E, A75E, A77E

What was measured:
ParC, full length [1] = target: B3; experiment: native MS
native MS = target: the molecule itself; experiment: native MS
ParC, full length [2] = target: B3; experiment: ITC
ParC, full length [3] = target: B3; experiment: SEC
[4] = target: T1, MukB, full length, wild type; experiment: fluorescence correlation spectroscopy

Binder: B1
- stoichiometry N (ParC, full length [1]): 1 ParC dimer per LH dimer
- stoichiometry N (native MS): 2
- Kd (ParC, full length [2]): 690 nM
- dH (ParC, full length [2]): -7.48 kcal/mol
- stoichiometry N (ParC, full length [2]): 0.84

Binder: B2
- binding result (ParC, full length [3]): binds

Binder: B3
- fold decrease in MatP-Cy3B binding to MukB at a 10-fold excess of competitor [4]: 3 fold

Binder: B4
- stoichiometry N (native MS): 2

Binder: B5
- stoichiometry N (native MS): 2
